B1: alcohol dehydrogenase (enzyme)
chain: MSIPETQKGVIFYESHGKLEYKDIPVPKPKANELLINVKYSGVCHTDLHAWHGDWPLPVKLPLVGGHEGAGVVVGMGENVKGWKIGDYAGIKWLNGSCMACEYCELGNESNCPHADLSGYTHDGSFQQYATADAVQAAHIPQGTDLAQVAPILCAGITVYKALKSANLMAGHWVAISGAAGGLGSLAVQYAKAMGYRVLGIDGGEGKEELFRSIGGEVFIDFTKEKDIVGAVLKATDGGAHGVINVSVSEAAIEASTRYVRANGTTVLVGMPAGAKCCSDVFNQVVKSISIVGSYVGNRADTREALDFFARGLVKSPIKVVGLSTLPEIYEKMEKGQIVGRYVVDTSK
notes: alcohol dehydrogenase (ADH), Sigma Aldrich A7011-15KU; native tetramer selected by mass; also called ADH; source: bought: Sigma Aldrich (A7011-15KU), used without further purification; desalted into 200 mM ammonium acetate
B2: apoferritin (natural protein, UniProt P02791 1-175, looked up)
chain: MSSQIRQNYSTEVEAAVNRLVNLYLRASYTYLSLGFYFDRDDVALEGVCHFFRELAEEKREGAERLLKMQNQRGGRALFQDLQKPSQDEWGTTLDAMKAAIVLEKSLNQALLDLHALGSAQADPHLCDFLESHFLDEEVKLIKKMGDHLTNIQRLVGSQAGLGEYLFERLTLKHD
notes: ferritin, Sigma Aldrich F4503-25MG; The sample held both apo- and holoferritin, and the 24-mer of apoferritin was selected by mass; PDB 7A6A, used for comparison of shapes, may be a recombinant ferritin of another species or chain; also called apo/holo-ferritin; source: bought: Sigma Aldrich (F4503-25MG), saline stock solution, used without further purification; desalted into 200 mM ammonium …

Biological target: the molecule itself
Assay: native MS; non-activating native electrospray on a Q Exactive UHMR; 200 mM ammonium acetate pH 6.9; 5 μM ADH, 10 μM β-gal, 8 μM ferritin, 5 μM GroEL (concentrations of the most abundant oligomers)

Protein | stoichiometry N
B1 | 4
B2 | 24

— PMC9641999, “Cryo-EM samples of gas-phase purified protein assemblies using native electrospray ion-beam deposition” (Faraday discussions, 2022)
